# B1: RAN GTPase-activating protein 1 (Arabidopsis thaliana (Mouse-ear cress)), Q9LE82 (parent)
# chain: MDHSAKTTQNRVLSVKMWPPSKSTRLMLVERMTKNITTPSIFSRKYGLLSVEEAEQDAKRIEDLAFATANKHFQNEPDGDGTSAVHVYAKESSKLMLDVIKRGPQEESEVEVSKDGDVFFDISGGSRAFIEEEEARDLLRPLADPRNSYTKIRFSNRSFGSEAAKFAASVLSSIKDQLTEVDLSDFVAGRPEAEALEVMNMFSSALEGSKLRYLNLSDNALGEKGIRAFASLINSQHDLEELYLMNDGISEDAARAVRELLPSTDKIRVLQFHNNMTGDEGATAIAEIVRECPSLEDFRCSSTRIGSEGGVALAEALEHCSHLKKLDLRDNMFGVEGGIALAKTLSVLTHLTEIYMSYLNLEDEGTEALSEALLKSAPSLEVLELAGNDITVKSTGNLAACIASKQSLAKLNLSENELKDEGTILIAKAVEGHDQLVEVDLSTNMIRRAGARALAQTVVKKNTFKLLNINGNFISEEGIDEVNDMFKDCLDKLVPLDDNDPEGEDFEDEDEEEEGEDGNELESKLGSLKIKQGEE
# Variants of: B1
# Details: with kn12c_arath KIN12C
row,effect of a mutation on the interaction,Variant
1,decreasing interaction,MDHSAKTTQNRVLSVKMAAPSKSTRLMLVERMTKNITTPSIFSRKYGLLSVEEAEQDAKRIEDLAFATANKHFQNEPDGDGTSAVHVYAKESSKLMLDVIKRGPQEESEVEVSKDGDVFFDISGGSRAFIEEEEARDLLRPLADPRNSYTKIRFSNRSFGSEAAKFAASVLSSIKDQLTEVDLSDFVAGRPEAEALEVMNMFSSALEGSKLRYLNLSDNALGEKGIRAFASLINSQHDLEELYLMNDGISEDAARAVRELLPSTDKIRVLQFHNNMTGDEGATAIAEIVRECPSLEDFRCSSTRIGSEGGVALAEALEHCSHLKKLDLRDNMFGVEGGIALAKTLSVLTHLTEIYMSYLNLEDEGTEALSEALLKSAPSLEVLELAGNDITVKSTGNLAACIASKQSLAKLNLSENELKDEGTILIAKAVEGHDQLVEVDLSTNMIRRAGARALAQTVVKKNTFKLLNINGNFISEEGIDEVNDMFKDCLDKLVPLDDNDPEGEDFEDEDEEEEGEDGNELESKLGSLKIKQGEE [W18A;P19A]

# Source: IntAct's records for PubMed 19011093
